Results on 25 sequences are retold here after the DeepSol protein solubility set.

This data set is described as follows: soluble on expression in E. coli; label from the status in PepcDB or PDB records.
“MGSDKIHHHHHHMYCMEKCVENYFVLNEEIKDKKTFDGNFVENGKSLYEVIRIIDGIPLFLGNHIKRLENSFKIEKLSFPVSLDNIKQNIFKLIEANKCEVGNVKLVFNYFENKCDFYGYFVQHKYPDEYDYINGVKTILYHGERSNPNAKVINLNFRKNVDKKIKEKGVFEAILVDRNGNITEGSKSNIFMVKSNTVYTAPVEDVLPGITREIIVEICKQCGYTVVDEKINYKKIDQFEGLFISGTSPKVLPICQVDDIKFNSQGTEMIRNIRKAYDDYISNYIKNFDSRS”: the “soluble on expression in E. coli” value was “not soluble”. For “MGSDKIHHHHHHMIIMRFLIKVKPEERKFRVPYNHQYFLQGLIYNRIKLTNPRLSTFLHETKGPKLFTYSLFMTERREHPKGLPYFLGYRRGFFYFSTCIPEIAEAFITGLFREPEITLWGEKFYLEEVKTLKEPKKFSGSTFITLSPIAVTMEKGGKRYDVSPLEEEFYALIRENLKDKYVMIKGEKPPDDFEMEIIAAKPKRFEVKPGIYQMAWHLVFRAYGDDELIRVGYVVGFGEKNSLGFGMVKVDEQRKRRKNIGSFQESMSFNENRELETGT”, the “soluble on expression in E. coli” value is given as “not soluble”. Then “GPTTPVPVSGSLEVKVNDWGSGAEYDVTLNLDGQYDWTVKVKLAPGATVGSFWSANKQEGNGYVIFTPVSWNKGPTATFGFIVNGPQGDKVEEITLEINGQVI”, with “soluble”. Turning to “MMSSGPLDPSDVTLFTSYPSPIVVPLEFIEEQSKSSREELEIDESGLYIMSKALEEFMRTVMRGATQNGSRLLDYDSIAEFFANSEFRALKDFFPERVRFDEIESEILPTRATGPSNSS”, the “soluble on expression in E. coli” value is “not soluble”. The entry for “MHHHHHHLEVLFQGPSSTVTIEYFNQKKEMTKTLEEITRDFEKENPKIKVKVVNVPNAGEVLKTRVLAGDVPDVVNIYPQSIELQEWAKAGVFEDLSNKDYLKRVKNGYAEKYAVNEKVYNVPFTANAYGIYYNKDKFEELGLKVPETWDEFEQLVKDIVAKGQTPFGIAGADAWTLNGYNQLAFATATGGGKEANQYLRYSQPNAIKLSDPIMKDDIKVMDILRINGSKQKNWEGAGYTDVIGAFARGDVLMTPNGSWAITAINEQKPNFKIGTFMIPGKEKGQSLTVGAGDLAWSISATTKHPKEANAFVEYMTRPEVMQKYYDVDGSPTAIEGVKQAGEDSPLAGMTEYAFTDRHLVWLQQYWTSEADFHTLTMNYVLTGDKQGMVNDLNAFFNPMKM” is “soluble”; for “MQDSVLGVMQPDGFQDIVAARFREARAGGLISTVFQIEIDDHTSLVERHGQRAAEVISTTSADRIAAVLRDRDAVTHLDTFKYAVCLEPVRQMDLELCIQLAGRIQAALEEPIALDATAVCITSSVGFCQQTKVLSRSGEAWLAAAGHALREAHLNGPGAIRAYSLEHHHHHH” it is “not soluble”. For the sequence “EFRKLGEVCEILDNRRIPIAKNKRNPGIYPYYGANGIQDYIDSYIFDGDFVLVGEDGSVINKDNTPVVNWASGKIWVNNHAHVLQTKNELKLKFLYFYLQTIDVSYCVAGTPPKINQENLKKIAIPIPPLEIQQEIVKILDQFSI”, the “soluble on expression in E. coli” value is on record as “not soluble”. The entry for “MGSDKIHHHHHHMVKLYKEIINLIDNHQATMVEQLHQFCEINSGTTNLTGLAIMAETLCSAFKPIADTTELITLPPLSVIDMTGNTVMQSCGDVLFISKRPHLKRRILLSGHMDTVYSASNPFQKLSYLDANQINGPGVADMKGGLIVILHALAAFENTRFAEDMGWDVLINSDEEIGSPTSGSLFNKLAHRYQAALVYEPAMTPNGTLAKNRKGSGKLTLVATGRAAHAGRAFDEGRNAICYLAEAITAVHALNGQKNGVTINVGKIAGGEALNVVPDKAVAQLDIRISLPEDEIWVRNELNKIIKQLERPDYSLNVHGTFGRPVKRICAGTERLFHRIQKIGEALGLTIDWKDSGGCCDGNNLAHYGLPVLDTLGVRGGNIHSSDEYILLDSLSERAALSALLLIDLAQGGLEDLIK” is “not soluble”. The entry for “MKLSKDTIAILKNFASINSGILLSQGKFIMTRAVNGTTYAEANISDEIDFDVALYDLNSFLSILSLVSDDAEISMHTDGNIKIADTRSTVYWPAADKSTIVFPNKPIQFPVASVITEIKAEDLQQLLRVSRGLQIDTIAITNKDGKIVINGYNKVEDSGLTRPKYSLTLTDYDGSNNFNFVINMANMKIQPGNYKVMLWGAGDKVAAKFESSQVSYVIAMEADSTHDF” is “soluble”. Then “MGSDKIHHHHHHMSDVYIFCLSMGSPTLNTRVLTNSMELKVGCCGFPVSMKRYFETFDVVEVQKTFYKPPEVKTAEKWRKSAPEDFEFTIKAWQVITHPPSSPTYKKAGIKFENCGFFRPTEVVFMAWEETKKIAKALKAEIIVFQTPKSFRDTAENMENMRAFFSSIDGSFTFCFEPRGWSEESVRAICEELDLVHVVDPFVSKQLYGEICYYRLHGFDYKHKYTDDELEKLLGIVDRDGYVMFNNVHMFDDALRFKKLVEREAKSK”, with “not soluble”. In the case of “MSLSDTEKKIADTKGQFLQAVSQGQRLTDAEWRNCRIVLTTERVALLGDDKRQISLTDIDRIADRFDVNQQSAGVSDYVALYVGEDVILVSASDHGTFETDFYRASLDGAIVLVQHPALKGGVVQSAEWTKGRLKVTDEALKLAMADGQAVVIDRADIGDLAVEEKQVSGEERTVIQVEHSEEDISVETHLAGEEFHATVLRTMLEESAEQNQADLDLSSTEKRVIMALHSGVSPFDIPNFVGIDVEKTEEIFDRLIELDVISVLRERTEVNLTTKGRRVAGERMGEQEGHHHHHH”, the “soluble on expression in E. coli” value is recorded as “not soluble”. The entry for “MSQQKSDFADDADIDESLDELASEETIEETVENLEANGFEVIVVNSADDALAELQSLIPAEASVMNGHSTTLEEIGFDEYLSDGDHGWESLPEEIWSIDDDAKRQAARRESQTADYFLGGINGISQTGELVAADRSGSRIGAYPFAASNVVIVSGVNKIVPTLEDALDRLETVAYPLENERAKEAYGVDSAIAKQLILRQELEEGRTTVVLIREHLGYLEHHHHHH” is “soluble”; for “MSKTITWTAALLGSMALAGCSGPKTLYQWEGYQAQVHEYFKGESKEAQAQALEADLEKIRAKNGAVPPGYHAQLGLLYSSIGKDDQMVREFETEKALFPESATYMDFLLNNARGGAR” it is “not soluble”; for “MAELSNCSKCGRLFVKLSTRDVCESCYQEEERQFERVYAFLRKRENRTATMAQVVEATGVEEKLIIKWIRAGRLQLVHFPNLGYPCDSCGAMIREGRLCAKCLGQLQADLRRAEGKKEKEARSRHATYYTQDHKER” it is “not soluble”. The entry for “DAAKSHAPVVRSMEASLSPELKRELSDGIECIGIGGGDLHTRIVWTQYGTLPHRVGDVQCRYRIVLLPQNADAPQGWQTVWQGARPRNKDSKFALIRKIGENI” is “not soluble”. The entry for “MNRNKWQRVPAPNTRGAKMHGWVREMDEAYREVNGEYAVLVRTLNTKLGTVKHAAIRNATETDITWSEKQRIKNEIFGEEKQAIEFFPKQSELIDEANMYHLWILEDCELEFGIYE” is “not soluble”. “QSSKSPLTAALGLDISGTPIITDLQKMPHGLIAGATGSGKSVCINSLLVSLLYKATPDQLKLLLIDPKMVELAPYNRIPHLVSPVITDAKAATVALKWAVEEMERRYQLFSHTGVRNMEKYNEYASHPDHTGEKLPYILIVIDELADLMMVAPNDVEESISRIAQKARACGIHMIVATQRPSV”: the “soluble on expression in E. coli” value is given as “not soluble”. The entry for “LSGLTRPQEGTDEVTDAHASACLAALERGFDAEWGGFGGEPKFPRPAVLSFLFSHAVATGNRHALDMALLTLRKMAAGGIHDHLGVAGLGGGGFARYSTDRFWHVPHFEKMLYDNAQLAASYLEAYQASGDELFANTARDIFHYVLCDMTSPEGAFWSAEDADSLDPYGSGEKREGAFYLWTEQEITGLLDPEEATLFIATYGIRSDGNAPFDPHGEFTGKNILIRTMSDNELAGTFEIPIETVGKRLNSARKKLFEARKKRPRPGLDDKILTSWNGLMLSALAKGSLVLGDTTLLEAAERAARFILDTLCDSKSGKLLRRYRDGQAAIEGKAADYACLILGLLDLYSASFDSDWLRAAIKLAEAQIERFFDQEAGVFYSTAVEDHSVPLR” is “not soluble”; for “MIAKHIDRFPLLKLDRVIDWQLIEQYLNRQKTRYLRDHRGRPAYPLLSMFKAVLLGQWHSLSDPELEHSLITRIDFNLFCRFDELSIPDYSTLCRYRNRLAQDNTLSELLELINRQLTEKGLKIEKASAAVVDATIIQTAGSKQRQAIEVDEEGQISGQTTPSKDSDARWIKKNGLYKLGYKQHTRTDAEGYIEKLHITPANAHECKHLSPLLEGLPKGTTVYADKGYDSAENRQHLEEHQLLDGIMRKAHRNRPLTEVQTKRNRYLSKTRYVVEQSFGTLHRKFRYARAAYFGLVKVSAQSHLKAMCLNLLKAANRLSAPAAA” it is “not soluble”; for “GLMALLMVFAVSIGGLTQIVPLFFQDVTNKPVEGMKPYTALQLEGRDVYIREGCVGCHSQMIRPFRAETERYGHYSVAGESVWDHPFLWGSKRTGPDLARVGGRYSDDWHRAHLYNPRNVVPESKMPSYPWLVAQPVDNSHTDVKMRTLRTLGVPYTDDDIAGAREAVKGKTEMDALVAYLQVLGT” it is “not soluble”. The entry for “MGSDKIHHHHHHMEINKIYCMDCLEGMKQLKDKTVDVVVTSPPYNIGIKYNKYSDNLSREDYLNWIEEVVKEIKRVLKDDGSFFINVGYTAKDPWIAFDVANVIRKHFKLQNTIHWVKSIAIQKEDVGNYPNIIGDIAVGHYKPINSDRFLSIMHEYIFHFTKNGNVKLDKLAIGVPYQDKSNIKRFNRKGDLRDRGNTWFIPYETIQSKEKERPHPATFPPKLPEMCIKLHGVKKTNLVLDPFMGIGSTAIACIRLGIDYIGFEIDEYYCRVAEERIKKELLKTDGKFDNVKNKNIITLDAFI” is “not soluble”; for “MGSDKIHHHHHHMIENLNGIHETVKYKEYSNVKLFINAEAEDYPIHWHTPMEIIMPLEGGYTVQIGDDLVHLNENDIIFIASGVKHRLIAPDTGKRLILQIEWSAVSKIKELNSILTLIAPAITLTPETSGDIHSNIRKLLLDISNEYQTDSFLSEAVIYSKILEVLVLIGRHHTASSCHFNVGRHKQQEYLERFLSICEYIDTHCTEDITLDEIAKIAGFSKYHFTRLFKQFTNNTFYKYLNQKRIELALTLLADPNISVTETAMQSGFANPSTFIRVFKTEKGCTPTEFRKMFIG” it is “not soluble”. Then “FWMELQAVDSYQVKASGILTGADRKIITMLYQPLMGAECLALYQTLFTEVEENRLWSEAHSHVQLLNMLDISLKALFEARLKLEGLGLLKSYVKTENDQRFYIYEILPPLSPEKFFSDGLLNIYLYSKIGNAQFQRLRRFFADETFETDTYSEITRSFQDVFEPFKGGSSAVPSESSQVLVDKIVPKEIEFDDASFDFNLFLSLLSPGMIAREKITKEVRQTILKLHGIYQVSEKDMPSYLYRALDANGEIDIVYLRKIVREGYTIENGAPPKLQMKQETPGKKEPEEALNDEEALQVYLESITPFQLLVDISDGAIPAETDLRVVEEVMNQQNLPVPVMNVLIEYVLLRLDRKLSKNYMMTIAAHWKRKNVKTAKEAMDLAWQEHEKYKRLQEEPATPKNNNYNRNYQKSTRKEILPDWFDKEQVAPAENKMTDKEKQTLEEQVREIKERLNKR”, with “not soluble”; and “GPLGSAGSSWQCDTCLLQNKVTDNKCIACQAAKLPLKETAKQTGIGTPSKSDKPASTSGTGFGDKFKPAIGTWDCDTCLVQNKPEAVKCVACETPKPG”, with “soluble”; and “MAGDTTITVVGNLTADPELRFTPSGAAVANFTVASTPRMFDRQSGEWKDGEALFLRCNIWREAAENVAESLTRGSRVIVTGRLKQRSFETREGEKRTVVEVEVDEIGPSLRYATAKVNKASRSGGGGGGFGSGGGGSRQSEPKDDPWGSAPASGSFSGADDEPPF”, with “soluble”.
